This is an account of results in paper PMC5750132.

In assay [1] the target is Truncated mouse TMEM16A (amino acids 1-903) (mouse). As to the kind of experiment: cryo-EM structure.
Assay [2] has the same target. As to the kind of experiment: cryo-EM structure. The source holds these as a separate data set.

Like-named read-outs stand apart in the source and are kept apart here.

One may read the stoichiometry N as the number of molecules, sites or subunits per partner or assembly. With “Truncated mouse TMEM16A (amino acids 1-903) (domain or fragment)”, the stoichiometry N in assay [1] and in assay [2] was 2 in each case.
